Results published in the Human Domainome abundance scans (Beltran et al. 2025).
± gives the uncertainty stated by the source.

B1: Ankyrin repeat and SAM domain-containing protein 6, residues 774 to 836; numbered along this chain, Q68DC2 (parent)
chain: DEDELTGILKKLSLEKYQPIFEEQEVDMEAFLTLTDGDLKELGIKTDGSRQQILAAISELNAG

Variants of: B1
Experiment: abundance fitness (aPCA) (normalised: wild type 0, dead -1); higher = more abundant; growth selection in yeast, the domain comes from the species named
Settings: Homo sapiens

| Variant | abundance fitness |
| --- | --- |
| DEDELTGILKKLSLEKYQPIFEEQEVDMEAFLTLTDGDLKELGIKIDGSRQQILAAISELNAG [T46I] | -0.019 ± 0.085 |
| DEDELTGILKKLSLEKYQPIFEEQEVDMEAFLTLTDGDLKELGIKCDGSRQQILAAISELNAG [T46C] | 0.016 ± 0.074 |
| DEDELTGILKKLSLEKYQPIFEEQEVDMEAFLTLTDGDLKELGIKDDGSRQQILAAISELNAG [T46D] | 0.118 ± 0.093 |
| DEDELTGILKKLSLEKYQPIFEEQEVDMEAFLTLTDGDLKELGIKHDGSRQQILAAISELNAG [T46H] | 0.151 ± 0.065 |
| DEDELTGILKKLSLEKYQPIFEEQEVDMEAFLTLTDGDLKELGIKEDGSRQQILAAISELNAG [T46E] | 0.084 ± 0.072 |
| DEDELTGILKKLSLEKYQPIFEEQEVDMEAFLTLTDGDLKELGIKFDGSRQQILAAISELNAG [T46F] | -0.361 ± 0.075 |
| DEDELTGILKKLSLEKYQPIFEEQEVDMEAFLTLTDGDLKELGIKGDGSRQQILAAISELNAG [T46G] | -0.011 ± 0.074 |
| DEDELTGILKKLSLEKYQPIFEEQEVDMEAFLTLTDGDLKELLIKTDGSRQQILAAISELNAG [G43L] | -0.655 ± 0.047 |
| DEDELTGILKKLSLEKYQPIFEEQEVDMEAFLTLTDGDLKELWIKTDGSRQQILAAISELNAG [G43W] | -1.16 ± 0.15 |
| DEDELTGILKKLSLEKYQPIFEEQEVDMEAFLTLTDGDLKELYIKTDGSRQQILAAISELNAG [G43Y] | -1.22 ± 0.26 |
| DEDELTGILKKLSLEKYQPIFEEQEVDMEAFLTLTDGDLKELSIKTDGSRQQILAAISELNAG [G43S] | -0.477 ± 0.061 |
| DEDELTGILKKLSLEKYQPIFEEQEVDMEAFLTLTDGDLKELTIKTDGSRQQILAAISELNAG [G43T] | -0.675 ± 0.081 |
| DEDELTGILKKLSLEKYQPIFEEQEVDMEAFLTLTDGDLKELKIKTDGSRQQILAAISELNAG [G43K] | -0.326 ± 0.091 |
| DEDELTGILKKLSLEKYQPIFEEQEVDMEAFLTLTDGDLKELHIKTDGSRQQILAAISELNAG [G43H] | -0.556 ± 0.14 |
| DEDELTGILKKLSLEKYQPIFEEQEVDMEAFLTLTDGDLKELDIKTDGSRQQILAAISELNAG [G43D] | -0.199 ± 0.078 |
| DEDELTGILKKLSLEKYQPIFEEQEVDMEAFLTLTDGDLKELQIKTDGSRQQILAAISELNAG [G43Q] | -0.608 ± 0.11 |
| DEDELTGILKKLSLEKYQPIFEEQEVDMEAFLTLTDGDLKELCIKTDGSRQQILAAISELNAG [G43C] | -0.742 ± 0.11 |
| DEDELTGILKKLSLEKYQPIFEEQEVDMEAFLTLTDGDLKELIIKTDGSRQQILAAISELNAG [G43I] | -1.07 ± 0.12 |
| DEDELTGILKKLSLEKYQPIFEEQEVDMEAFLTLTDGDLKELMIKTDGSRQQILAAISELNAG [G43M] | -0.611 ± 0.079 |
| DEDELTGILKKLSLEKYQPIFEEQEVDMEAFLTLTDGDLKELPIKTDGSRQQILAAISELNAG [G43P] | -0.683 ± 0.14 |
| DEDELTGILKKLSLEKYQPIFEEQEVDMEAFLTLTDGDLKELRIKTDGSRQQILAAISELNAG [G43R] | -0.616 ± 0.054 |

| Variant | abundance fitness |
| --- | --- |
| DEDELTGILKKLSLEKYQPIFEEQEVDMEAFLTLTDGDLKQLGIKTDGSRQQILAAISELNAG [E41Q] | 0.044 ± 0.051 |
| DEDELTGILKKLSLEKYQPIFEEQEVDMEAFLTLTDGDLKVLGIKTDGSRQQILAAISELNAG [E41V] | -0.232 ± 0.044 |
| DEDELTGILKKLSLEKYQPIFEEQEVDMEAFLTLTDGDLKILGIKTDGSRQQILAAISELNAG [E41I] | -0.472 ± 0.089 |
| DEDELTGILKKLSLEKYQPIFEEQEVDMEAFLTLTDGDLKWLGIKTDGSRQQILAAISELNAG [E41W] | -0.498 ± 0.052 |
| DEDELTGILKKLSLEKYQPIFEEQEVDMEAFLTLTDGDLKPLGIKTDGSRQQILAAISELNAG [E41P] | -0.658 ± 0.054 |
| DEDELTGILKKLSLEKYQPIFEEQEVDMEAFLTLTDGDLKCLGIKTDGSRQQILAAISELNAG [E41C] | -0.113 ± 0.061 |
| DEDELTGILKKLSLEKYQPIFEEQEVDMEAFLTLTDGDLKMLGIKTDGSRQQILAAISELNAG [E41M] | -0.263 ± 0.049 |
| DEDELTGILKKLSLEKYQPIFEEQEVDMEAFLTLTDGDLKNLGIKTDGSRQQILAAISELNAG [E41N] | -0.052 ± 0.092 |
| DEDELTGILKKLSLEKYQPIFEEQEVDMEAFLTLTDGDLKGLGIKTDGSRQQILAAISELNAG [E41G] | -0.092 ± 0.067 |
| DEDELTGILKKLSLEKYQPIFEEQEVDMEAFLTLTDGDLKLLGIKTDGSRQQILAAISELNAG [E41L] | -0.205 ± 0.041 |
| DEDELTGILKKLSLEKYQPIFEEQEVDMEAFLTLTDGDLKHLGIKTDGSRQQILAAISELNAG [E41H] | -0.045 ± 0.051 |
| DEDELTGILKKLSLEKYQPIFEEQEVDMEAFLTLTDGDLKKLGIKTDGSRQQILAAISELNAG [E41K] | -0.109 ± 0.059 |
| DEDELTGILKKLSLEKYQPIFEEQEVDMEAFLTLTDGDLKSLGIKTDGSRQQILAAISELNAG [E41S] | -0.022 ± 0.039 |
| DEDELTGILKKLSLEKYQPIFEEQEVDMEAFLTLTDGDLKFLGIKTDGSRQQILAAISELNAG [E41F] | -0.376 ± 0.06 |
| DEDELTGILKKLSLEKYQPIFEEQEVDMEAFLTLTDGDLKDLGIKTDGSRQQILAAISELNAG [E41D] | -0.044 ± 0.073 |
| DEDELTGILKKLSLEKYQPIFEEQEVDMEAFLTLTDGDLKALGIKTDGSRQQILAAISELNAG [E41A] | -0.047 ± 0.043 |
| DEDELTGILKKLSLEKYQPIFEEQEVDMEAFLTLTDGDLKTLGIKTDGSRQQILAAISELNAG [E41T] | -0.039 ± 0.053 |
| DEDELTGILKKLSLEKYQPIFEEQEVDMEAFLTLTDGDLKRLGIKTDGSRQQILAAISELNAG [E41R] | -0.049 ± 0.039 |
| DEDELTGILKKLSLEKYQPIFEEQEVDMEAFLTLTDGDLKYLGIKTDGSRQQILAAISELNAG [E41Y] | -0.321 ± 0.068 |
| DEDELTGILKKLSLEKYQPIFEEQEVDMEAFLTLTDGDLKELGTKTDGSRQQILAAISELNAG [I44T] | -0.555 ± 0.064 |
| DEDELTGILKKLSLEKYQPIFEEQEVDMEAFLTLTDGDLKELGLKTDGSRQQILAAISELNAG [I44L] | -0.245 ± 0.042 |
